Measured values reported in patent US7625735B2, “Recombinant kinase from insect cells for the synthesis of nucleoside monophosphates” (Roche Diagnostic Operations, Inc., priority 1998, dated 2009).

Key:
[1] = Stability: remaining activity of recombinant versus native Dm-kinase after incubation at 37° C.; assay type: physicochemical
Procedure: The activity of the recombinant Dm-kinase compared to native, isolated Dm-kinase was determined. After different periods of incubation in 50 mM Tris 7.5+2.5 mM MgCl2 at 37° C. the remaining activity was determined.

[2] = Activity of the kinase from D. Melanogaster at different temperatures; assay type: biochemical; conditions: wide optimum
Procedure: The activity of the Dm-nucleoside kinase was determined at different temperatures. […] (see FIG. 6).
The activity test is described in reference No. 14.

[3] = Kinetic constants of the Drosophila kinase compared to known analogous enzymes; assay type: biochemical; conditions: versus hitherto known kinases, Kc values
Excerpt: Furthermore, […]; as a consequence, for the synthesis of the individual nucleosides it is no more necessary to have the corresponding specific kinase. Particularly advantageous is the low specificity for the synthesis of modified nucleoside analogues, such as dideoxynucleosides or base- or sugar-modified nucleosides. Base-modified nucleosides are for example 7-deaza-nucleosides, C-nucleosides and nucleotides labelled with reporter groups (dye, digoxigenin, biotin) at the base. Sugar-modified nucleosides are for example azathymidine, arabinosyl-thymidine. The specific activity kc of the kinase according to the invention is several times higher than that of the kinases known before. The activity of the enzyme was measured as described in the reference: Munch-Peterson et al. (1991) J. Biol. Chem. 266, 9032-9038. By this, a considerably lower amount of enzyme is necessary to synthesize the dNMPs. (factor 3.5-14000, cf. Kc values in table 1). The specificity constant (kc/KM) of the kinase according to the invention exceeds that of the hitherto known kinases by several powers and is in the region of the diffusion constant. This leads to the complete yield when the kinase is added to the d-NMP synthesis. They are higher by factor 2-6500 than the hitherto known kinases, s. FIG. 1. […]

B1: recombinant Dm-kinase: recombinant multifunctional deoxynucleoside kinase from Drosophila Melanogaster, expressed in E. coli (protein, UniProt Q9XZT6 1-250, looked up)
Deoxynucleoside kinase: MAEAASCARKGTKYAEGTQPFTVLIEGNIGSGKTTYLNHFEKYKNDICLLTEPVEKWRNVNGVNLLELMYKDPKKWAMPFQSYVTLTMLQSHTAPTNKKLKIMERSIFSARYCFVENMRRNGSLEQGMYNTLEEWYKFIEESIHVQADLIIYLRTSPEVAYERIRQRARSEESCVPLKYLQELHELHEDWLIHQRRPQSCKVLVLDADLNLENIGTEYQRSESSIFDAISSNQQPSPVLVSPSKRQRVAR
- stability (remaining activity) ([1]; 50 mM Tris 7.5+2.5 mM MgCl2, 37° C., without addition of BSA): remains stable
- half-life ([1]; Tris buffer in the presence of MgCl2, 37° C.): 50 h
- half-life ([1]; Tris buffer without MgCl2, 37° C.): 31 h
- half-life ([1]; pure water): 28 h
- temperature of maximum activity [2]: 60 °C
- factor by which specific activity kc exceeds known kinases (lower amount of enzyme necessary) [3]: 3.5-14000

B2: native Dm-kinase: native, isolated deoxynucleoside kinase from Drosophila Melanogaster, used for comparison (protein, UniProt Q9XZT6 1-250, looked up)
Deoxynucleoside kinase: B1 Deoxynucleoside kinase
- stability (remaining activity) ([1]; 50 mM Tris 7.5+2.5 mM MgCl2, 37° C., with 2.5 mg/ml BSA): remains stable
- half-life ([1]; under the same conditions): < 0.2 h
- remaining activity ([1]; within 50 min, 50 mM Tris 7.5+2.5 mM MgCl2, 37° C., without BSA): < 20%
